Source: IntAct's records for PubMed 7851759

B1: Serine/threonine-protein kinase STE11 (Saccharomyces cerevisiae), P23561 (parent)
chain: MEQTQTAEGTDLLIGDEKTNDLPFVQLFLEEIGCTQYLDSFIQCNLVTEEEIKYLDKDILIALGVNKIGDRLKILRKSKSFQRDKRIEQVNRLKNLMEKVSSLSTATLSMNSELIPEKHCVIFILNDGSAKKVNVNGCFNADSIKKRLIRRLPHELLATNSNGEVTKMVQDYDVFVLDYTKNVLHLLYDVELVTICHANDRVEKNRLIFVSKDQTPSDKAISTSKKLYLRTLSALSQVGPSSSNLLAQNKGISHNNAEGKLRIDNTEKDRIRQIFNQRPPSEFISTNLAGYFPHTDMKRLQKTMRESFRHSARLSIAQRRPLSAESNNIGDILLKHSNAVDMALLQGLDQTRLSSKLDTTKIPKLAHKRPEDNDAISNQLELLSVESGEEEDHDFFGEDSDIVSLPTKIATPKNWLKGACIGSGSFGSVYLGMNAHTGELMAVKQVEIKNNNIGVPTDNNKQANSDENNEQEEQQEKIEDVGAVSHPKTNQNIHRKMVDALQHEMNLLKELHHENIVTYYGASQEGGNLNIFLEYVPGGSVSSMLNNYGPFEESLITNFTRQILIGVAYLHKKNIIHRDIKGANILIDIKGCVKITDFGISKKLSPLNKKQNKRASLQGSVFWMSPEVVKQTATTAKADIWSTGCVVIEMFTGKHPFPDFSQMQAIFKIGTNTTPEIPSWATSEGKNFLRKAFELDYQYRPSALELLQHPWLDAHII
B2: Serine/threonine-protein kinase STE11 (Saccharomyces cerevisiae), P23561 (parent)
chain: B1 chain
partner: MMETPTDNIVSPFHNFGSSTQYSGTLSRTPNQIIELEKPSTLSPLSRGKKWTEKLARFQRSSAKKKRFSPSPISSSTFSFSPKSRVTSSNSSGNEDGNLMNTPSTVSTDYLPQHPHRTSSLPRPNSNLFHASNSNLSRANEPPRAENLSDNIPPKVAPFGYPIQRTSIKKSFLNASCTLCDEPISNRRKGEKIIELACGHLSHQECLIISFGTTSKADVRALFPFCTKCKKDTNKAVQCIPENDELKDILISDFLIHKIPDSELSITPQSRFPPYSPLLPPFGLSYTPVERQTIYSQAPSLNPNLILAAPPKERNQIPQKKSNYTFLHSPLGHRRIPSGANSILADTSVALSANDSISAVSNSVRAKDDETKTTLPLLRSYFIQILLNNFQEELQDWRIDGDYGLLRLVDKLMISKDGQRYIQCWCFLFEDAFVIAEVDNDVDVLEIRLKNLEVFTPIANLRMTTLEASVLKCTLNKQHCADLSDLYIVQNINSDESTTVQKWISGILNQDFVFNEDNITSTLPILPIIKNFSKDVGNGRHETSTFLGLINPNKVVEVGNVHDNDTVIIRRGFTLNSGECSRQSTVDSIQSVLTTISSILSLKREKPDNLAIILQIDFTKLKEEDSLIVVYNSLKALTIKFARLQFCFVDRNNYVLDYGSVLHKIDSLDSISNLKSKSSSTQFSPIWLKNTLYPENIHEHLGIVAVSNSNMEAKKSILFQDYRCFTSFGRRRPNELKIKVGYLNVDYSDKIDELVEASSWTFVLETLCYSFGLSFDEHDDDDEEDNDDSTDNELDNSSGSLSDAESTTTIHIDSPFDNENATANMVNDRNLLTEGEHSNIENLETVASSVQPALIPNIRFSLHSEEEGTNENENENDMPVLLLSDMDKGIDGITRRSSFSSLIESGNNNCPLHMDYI
B3: Serine/threonine-protein kinase STE11 (Saccharomyces cerevisiae), P23561 (parent)
chain: B1 chain
partner: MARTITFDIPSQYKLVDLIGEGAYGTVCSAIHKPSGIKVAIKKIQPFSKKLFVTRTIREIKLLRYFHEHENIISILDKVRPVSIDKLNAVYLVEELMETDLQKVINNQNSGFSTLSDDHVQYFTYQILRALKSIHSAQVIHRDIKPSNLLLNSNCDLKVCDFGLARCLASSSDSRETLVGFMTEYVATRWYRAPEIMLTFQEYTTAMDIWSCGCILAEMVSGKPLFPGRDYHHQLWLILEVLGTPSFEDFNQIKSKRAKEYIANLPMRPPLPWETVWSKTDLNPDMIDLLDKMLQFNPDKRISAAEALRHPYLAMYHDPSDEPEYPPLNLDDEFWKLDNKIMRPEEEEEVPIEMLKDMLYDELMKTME

Variants of: B1
Settings: with fus3_yeast FUS3, P16892
Chain of fus3_yeast FUS3, P16892 (P16892 whole entry): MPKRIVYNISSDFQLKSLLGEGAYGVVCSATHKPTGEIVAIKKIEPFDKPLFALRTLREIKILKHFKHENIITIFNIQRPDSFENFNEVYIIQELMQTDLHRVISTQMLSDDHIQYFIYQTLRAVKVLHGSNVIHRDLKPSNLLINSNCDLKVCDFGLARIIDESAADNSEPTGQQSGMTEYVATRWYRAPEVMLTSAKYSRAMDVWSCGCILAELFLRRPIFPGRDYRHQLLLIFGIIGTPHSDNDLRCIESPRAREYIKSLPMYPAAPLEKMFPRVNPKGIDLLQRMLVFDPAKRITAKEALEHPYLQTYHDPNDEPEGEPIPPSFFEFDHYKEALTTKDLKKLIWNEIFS

effect of a mutation on the interaction | Variant
decreasing interaction | P279S

Variants of: B2
Settings: with ste5_yeast STE5, P32917

effect of a mutation on the interaction | Variant
increasing interaction | P279S

Variants of: B3
Settings: with kss1_yeast KSS1, P14681

effect of a mutation on the interaction | Variant
decreasing interaction | P279S
